Reference: US8323941B2, “Histone demethylation mediated by the nuclear amine oxidase homolog LSD1” (President and Fellows of Harvard College, priority 2004, dated 2012)
One block for each compound: values may come before it.

Legend:
HIS-LSD1 [1] = molecular target: T1, HIS-LSD1 (Homo sapiens, UniProt O60341); test: Demethylase assay on histone H3 peptides, Western blotting with methyl-specific antibodies; assay type: biochemical; parameters: Full length (1-851aa) and C-terminal deleted (1-427 aa) human LSD1 cDNAs; 6xHis (N); made in house; host or cells: bacteria (IPTG induction); settings: 1 μg LSD1, 1 nmole peptide; modification-specific antibody
Excerpt: LSD1 is a flavin-containing protein based on its ability to bind FAD ((Humphrey et al., 2001), and data not shown). Its sequence homology with amine oxidases predicts that LSD1 may catalyze oxidation reactions of biogenic amines including monoamine, polyamines or N-methylated protein substrates (such as histones) (Bannister et al., 2002). Amine oxidation catalyzed by flavin-containing amine oxidase is characterized by oxidative cleavage of the a-carbon bond of the substrate to form an imine intermiediate, which, in turn, is hydrolyzed to form an aldehyde and amine via a non-enzymatic process. In a complete catalytic cycle, the cofactor FAD is reduced to FADH2 and then is likely to be re-oxidized by oxygen to produce hydrogen peroxide (Binda et al., 2002). […] The HIS-LSD1 proteins were incubated with histone H3 peptides carrying dimethylated K4 (diMeK4H3) or K9 (diMeK9H3) and the methylation status was determined using a diMeK4H3 or diMeK9H3 specific antibody, respectively. […]
Demethylase assay. […] The reaction mixture was analyzed by SDS-PAGE/Western blotting using methyl-specific antibodies, or by formaldehyde formation assay to examine the removal and conversion of the methyl group to formaldehyde, or by mass spectrometry to identify the demethylated peptide.

HIS-LSD1 [2] = molecular target: T1, HIS-LSD1; test: Demethylation-FDH coupled spectrophotometric assay (formaldehyde formation); assay type: biochemical; parameters: Full length (1-851aa) and C-terminal deleted (1-427 aa) human LSD1 cDNAs; 6xHis (N); made in house; settings: for formaldehyde production (absorbance at OD 340 nm): peptide used as substrate of HIS-LSD1
Excerpt: We used a third independent method to investigate the possibility that LSD1 is a histone demethylase. […] To determine whether formaldehyde was produced in LSD1-mediated enzymatic reactions, we first used the formaldehyde dehydrogenase (FDH) assay to detect the presence of formaldehyde (Lizcano et al., 2000). This assay employs formaldehyde dehydrogenase to convert formaldehyde to formic acid using NAD^+ as the electron acceptor, whose reduction to NADH can be spectrophotometrically measured at OD 340 nm. Thus, when the demethylation reaction is coupled with the FDH assay, the enzymatic activity of LSD1 and reaction kinetics can be determined by measuring the production of NADH. A standard curve was first generated using purified FDH (EC 1.2.1.46), NAD^+ and different concentrations of formaldehyde ranging from 1 μM to 10 mM, within which a linear relationship was found between the production of NADH and the range of formaldehyde used in the assay. Subsequently, the coupled demethylation-FDH assays were carried out within this linear range and were initiated with the addition of the diMeK4H3 substrates. The continuous production of the formaldehyde as the demethylation proceeded was monitored by OD measurement at 340 nm at different time points. […] We next used the demethylation-FDH coupled spectrophotometric assay as another independent means to investigate the substrate specificity of LSD1.
Formaldehyde Dehydrogenase (FDH) assay. Formaldehyde formation was continuously monitored by a coupled spectrophotometric assay (Lizcano et al., 2000) using formaldehyde dehydrogenase (FDH). […] The absorbance at 340 nm (ε340=6.22 mM^−1 cm^−1 for NADH) was measured at each time point in a 0.5 min interval using Beckman DU640 spectrophotometer. The OD 340 nm absorbance at the moment of the substrate addition was considered as 0 and this was used as the 0 min time point. Over a 10 min period, a kinetic software program automatically recorded the absorbance at each time point. The data were analyzed using the Excel program. […]

LSD1 [3] = molecular target: LSD1 (Homo sapiens, UniProt O60341); test: LSD1 demethylation assay on nucleosomal substrates (mononucleosomes), Western blotting; assay type: biochemical; parameters: Full length (1-851aa) and C-terminal deleted (1-427 aa) human LSD1 cDNAs; 6xHis (N); made in house; host or cells: bacteria; settings: for stimulation of LSD1 demethylation activity: CoREST deletion mutants
Description: Preparation of mononucleosome. Mononucleosome was made according to a standard protocol (Tagami et al., 2004; Utley et al., 1996). Briefly, nuclear pellet from both TSA-treated or non-treated HeLa cells was homogenized for 60 times with type A pestle to obtain oligo-nucleosomes. The oligo-nucleosomes were then digested with micrococcal nuclease (40 units/mL) for 10 mins at 30° C. The nuclease is inactivated by 5 mM EDTA. Digested materials were spun at 14000 rpm for 3 mins. Resulting supernatant was spun again for additional 3 mins at the same speed. Supernatant from the second spin was subject to 10-25% glycerol gradient sedimentation. The monocleosome-containing fractions were identified by examining aliquots of fractions (treated with proteinase K) on DNA agarose gel. An aliquot of TSA-treated or non TSA-treated mononucleosome, a kind gift from Dr. Yoshihiro Nakatani's Lab in Dana Faber Cancer Institute, Harvard Medical School (Tagami et al., 2004), was used here as a control for the quality of mononucleosome made in our lab.
Demethylation assay. LSD1 demethylation activity on free histone or nucleosomal histone was carried out as previously reported (Shi et al., 2004). Briefly, bulk histones or mononucleosomes were incubated with purified His-LSD1 with or without purified His-CoREST, His-CoREST mutants, His-BHC80 and/or GST-HDAC1 in the histone demethylase activity (HDM) assay buffer (50 mM Tris pH8.5, 50 mM KCl, 5 mM MgCl, 0.5% BSA and 5% glycerol) from 10 mins up to 1 hour at 37° C. The demethylase activity of LSD1 under various conditions was evaluated by Western blotting using K4-H3 methylation-specific antibodies.

GST-LSD1 = molecular target: T2, GST-LSD1 (Homo sapiens, UniProt O60341); test: GST pulldown of HIS-tagged CoREST and mutants; assay type: binding; settings: Coomassie Blue staining
T2 construct: made in house; host or cells: bacteria (inferred from 'similar procedure' to the His-tagged proteins)
Description: To identify domains of CoREST that are involved in physical interactions with LSD1, GST-LSD1 or GST was incubated with bacterially purified, HIS-tagged CoREST and its mutant derivatives. […] This places the putative LSD1-binding domain within the C-terminal functional domain of CoREST, somewhere between aa 293-381 of CoREST. […] We therefore speculate that the SANT2 domain may be involved in mediate binding to the nucleosomal substrate. Taken together, these findings are consistent with the idea that CoREST functions as a bridging protein. The weak stimulatory activity of the N-terminal CoREST (del1, aa 1-293) remains unclear at the present time.
GST and GSTLSD1 plamsids were kind gifts from Dr. Tadashi Baba's Lab in Japan (Iwase et al., 2004). Expression and purification of GST and GSTLSD1 proteins were done using similar procedure as outlined for purification of his-tagged recombinant proteins. For GST-bead pulldown experiment, 2 μg of each purified his-tagged wt or del CoREST proteins were incubated with 5 μg of bound GST and GSTLSD1 proteins at 4° C. for 4 hrs in a binding buffer (50 mM Tris, pH 8.0, 300 mM NaCl, 1 mM DTT, 0.5 mM EDTA and 0.1% NP-40). The beads were washed 3 times in the binding buffer, resuspended in 2×SDS protein sample buffer, boiled for 5 mins and loaded onto 15% SDS PAGE gel. The gel was then stained with Coomassie Blue.

LSD1 target genes = test: RT-PCR of LSD1 target genes / mRNA in HeLa cells; assay type: cell-based, human; settings: TSA treatment
Excerpt: RT-PCR. Total RNA samples were isolated from 2×10^6 cells by Trizol reagent (Sigma). After DNase treatment, the RNA samples were purified by phenol-chloroform extraction and ethanol precipitation. 38 PCR cycles were used for SCN1A, SCN2A, SCN3A and M4 AchR and 28 PCR cycles for GAPDH. Primers used in RT-PCR were as follows: SCN1A up (5′-[…]-3′; SEQ ID NO: 1), down (5′-[…]-3′; SEQ ID NO: 2); SCN2A up (5′-[…]-3′; SEQ ID NO: 3), down (5′-[…]-3′; SEQ ID NO: 4) SCN3A up (5′-[…]-3′; SEQ ID NO: 5), down (5′-[…]-3′; SEQ ID NO: 6); p57^KIP2 up (5′-[…]-3′; SEQ ID NO: 7), down (5′-[…]-3′; SEQ ID NO: 8); GAPDH up (5′-[…]-3′; SEQ ID NO: 9), down (5′-[…]-3′; SEQ ID NO: 10).
(§1) Knockdown LSD, CoREST and Proteasome inhibitor (PI) treatment. Stable cell lines which express mutant GFP-shRNA, CtBP-shRNA, LSD1-shRNA or CoREST-shRNA were generated as previously described (Shi et al., 2003; Sui et al., 2002). To prevent proteasome-mediated protein degradation, the cells were treated with ZL3VS at final concentration 10 μM for 24 hours in culture then harvested. The protein and mRNA levels of the shRNA-knockdown cells with or without PI treatment were estimated by Western blotting and RT-PCR as previously described (Shi et al., 2004).

SCN2A = settings: Rat-1 fibroblast cells, TSA treatment; cited from earlier work
LSD1 [4] = test: LSD1 protein level in knockdown cells (immunostaining, Western blotting); assay type: cell-based, human; settings: CoREST shRNA treated cells; 10 μM for 24 hours
Description: as §1

formaldehyde production (absorbance at OD 340 nm) (HIS-LSD1 [2]): robust increase
Km (HIS-LSD1 [2]; purified HIS-LSD1, Lineweaver-Burk transformation, read-out: apparent Km for the diMeK4H3 substrates): ~30 µM
Compound: diMeK4H3: Synthetic histone H3 peptide (1-21 aa) carrying dimethylated K4
dimethylation level of H3 peptide after incubation with LSD1 (HIS-LSD1 [1]): effectively reduced dimethylation level at K4

effect of added protein on ability of recombinant LSD1 to demethylate nucleosomal substrates (LSD1 [3]; bacterially purified protein added to recombinant LSD1): no effect
Compound: HDAC1: Bacterially purified histone deacetylase 1

binding to LSD1 (GST-LSD1): bound LSD1
stimulation of LSD1 demethylation activity (LSD1 [3]): fail to stimulate its activity
Compound: del 5: CoREST deletion mutant aa 293-381

binding to LSD1 (GST-LSD1): bound LSD1
stimulation of LSD1 demethylation activity (LSD1 [3]): fail to stimulate its activity
Compound: del 3: CoREST deletion mutant aa 105-381

The remaining lines, values behind:

Compound: CC(/C=C/C(=O)NO)=C\[C@@H](C)C(=O)c1ccc(N(C)C)cc1 [TSA, Trichostatin A]
expression of LSD1 target genes SCNA2 and SCNA3 (LSD1 target genes): de-repression
difference in CoREST/LSD1-mediated demethylation, untreated vs TSA-treated nucleosomes (LSD1 [3]; hyperacetylated nucleosomes isolated from TSA-treated HeLa cells, less susceptible): approximately 4 fold
SCN2A expression (SCN2A): unaffected

Compound: diMeK9H3: Synthetic histone H3 peptide (1-21aa) carrying dimethylated K9
dimethylation level of H3 peptide after incubation with LSD1 (HIS-LSD1 [1]): failed to reduce the dimethylation level at K9
formaldehyde production (absorbance at OD 340 nm) (HIS-LSD1 [2]): not

Compound: CC(C)C[C@@H](/C=C/S(C)(=O)=O)NC(=O)[C@H](CC(C)C)NC(=O)[C@H](CC(C)C)NC(=O)OCc1ccccc1 [ZL3VS]
LSD1 steady state level (LSD1 [4]): restored the LSD1 steady state level
